40 sequences from the nanobody polyreactivity screen of Harvey et al. (2022) can be followed below.

The nature of this data set: yeast display, Sf9 membrane polyspecificity reagent, FACS + sequencing; frameworks hold sequencing errors. A digest of the protocol: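 Genes from sorted yeast were amplified by colony PCR, read by MiSeq 2 × 250 sequencing and filtered on CDR length. These cells carried a synthetic nanobody library in Saccharomyces cerevisiae BJ5465 and were sorted by FACS into low and high (top ~1%) gates on anti-HA and streptavidin fluorescence. Polyreactivity is labelled according to the gate of origin.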
As for “QVQLVEAGGGLVQAGGSLRLSCGASGLTLTYYAMGGYRQAPGKERELVASISRSGGRTYYADSVKGRFTISRDNAKNPVYLQMNSLKPEDTAVYYCNAAWYRGRYDYWGQGTQVTVSS”, the “polyreactivity (PSR sort gate)” value is “high polyreactivity”.

Take “QVQLVEAGGGLVQAGGSLRLSGAASGFTLYANAMGWYRQAPGKERELVADISVSGSSTAYADSVKGRFTISRDNAKNTVYLQMNSLKPEDTAVYYCNADQGTRDSDYWGQGTQVTVSS”: the “polyreactivity (PSR sort gate)” value is listed as “low polyreactivity”.

“QVQLVEEGGGLVQAGGSLRLSCAASGRISYYYTMGWYSQAPGKERELVAAISWSGGTTYYADSVKGRFTISRDNAKYTVYLQMYSLKPEDTAVYYCAARDYYTDFHGTRRYDYWGQGTLVTVSS”: the “polyreactivity (PSR sort gate)” value was “low polyreactivity”.

On to “QVQLVELGGGLVQAGGSLRLSCAASGSIFSRNTMGWYRQAPGKERELVAGISSSGSRTYYADSVKGRFTISRDNAKNTVYLQMNSLKPEDTAVYYCNARYYWKQAADYNYWGQGTQVTVSS”, for which the “polyreactivity (PSR sort gate)” value is “low polyreactivity”.

For the sequence “QVQLVEPGGGLVQAGGSLRLSCAASGRIFRGYAMGWYRQAPGKVRELVAANSQSGSSTYYADSVKGRFTISRDNAKNTVYLKMNSLKPEDTAVYYCAVKYLKHFGYWGQGTQVTVSS”, the “polyreactivity (PSR sort gate)” value is recorded as “high polyreactivity”.

As for “QVQLVESAAGLVKAGASLRLSCAPSGSTFYLNAMGGSRQEPGQESEFVAAIRGGGTSTRYADSVKGRFTISRDNAKNSVYLQMNSLKPEDSAVYYCAAGPGGHRYKVGYWGLGTQVTVSS”, the “polyreactivity (PSR sort gate)” value was “high polyreactivity”.

“QVQLVESAAGLVQAGGSLRLSCAASGFIFHCNAMGWSRQAPGKERELVAAISDTADITHYADSVKGRFTISRDNAKNTVYLQMNSLKPEDTAVYFCNAGSGVQVVWYKPYREYEYWGQGTQVTVSS”: the “polyreactivity (PSR sort gate)” value is “low polyreactivity”.

On to “QVQLVESAAGLVQAGGSLRLSCAASGLTFTTYDKGWYTQAPRKQRELFAAISRGGSRTYYADSVKGRFTISRDNAKNTVYLQMNSLKPEDTAVYYGNALTGSFTTYSFDFWGQGTQVTVSS”, for which the “polyreactivity (PSR sort gate)” value is recorded as “high polyreactivity”.

“QVQLVESAAGLVQAGGSLRLSSAASGSIFGPYAMGWYRQAPGKERELVAVISSGDSTNYADSVKGRFTISRDNAKNTVYLQMNSLKPEDTAVYYCATRYLLYRGGHSLFYHFDYWGQGTQVTVSS”: the “polyreactivity (PSR sort gate)” value is reported as “low polyreactivity”.

Consider “QVQLVESAARLVQAGGSLRLSCAPSGNIFKGYAMGCYRQAPGKHRELVAAITSGDSTNYADSVKGRFTISRDNAKNTVYLQMNSLKPEDTGVYYCNARYSWWRSRDGSSHRPDGYWGQGTQVTVSS”, for which the “polyreactivity (PSR sort gate)” value is on record as “high polyreactivity”.

With “QVQLVESAGGFVQAGGSLRLSCAASGLTFYYYAMGWYRQAPGTERELVAAFSTRGTSTYYADSVKGRFTISRDNAKKTVYLQMNSQKPEDTAVYYCAADSYPWGTGGDYWGQGTQVTVSS”, the “polyreactivity (PSR sort gate)” value is on record as “high polyreactivity”.

For “QVQLVESAGGLDQAGGSLRLSCAASGFTFVAYSMGLYRQAPGKERELVADISRGGSTFYADSVKGRFTISRDNAKISVYLQKNSLKPEDSAVYYCASTYIHSYGKFYYWGQGTQVTVSS”, the “polyreactivity (PSR sort gate)” value is listed as “low polyreactivity”.

On to “QVQLVESAGGLFQEGGSLRVSCAASGSTFSYYDMGGYRQAPGKERELVAAINSTGITTYADSVKGRFTISRDNAKNTVYLQMNSLKPEDTAVYYCAAYHNYWGPYVWEEDYWGQGTQVTVSS”, for which the “polyreactivity (PSR sort gate)” value is “low polyreactivity”.

Turning to “QVQLVESAGGLVQAAGSLRLSCDASGFIFGTNAMGWYRQAPGKERELVAAINGRGGGTYYADSVKGRFTISRDNAKNTVYLQMNSLKPEDTAVYYCAASRFDYWGQGTQVTVSS”, the “polyreactivity (PSR sort gate)” value was “low polyreactivity”.

Regarding “QVQLVESAGGLVQAGGSLLLSCAASGFTFYPYAMGWYRQAPGKERELVAAISNGDSTHYADSVKGRFTISRDNAKNTVYLQMTSQKPEDTAVYYCAAPRYPYRCFYSDYDYWGQGTQVTVSS”, the “polyreactivity (PSR sort gate)” value is “low polyreactivity”.

For “QVQLVESAGGLVQAGGSLPLSSAASGRIFVWYAMRWYRQAPGKDRELVAAISISGSSTYYADSVKGRFTISRDNAKNTVYLQMNSLNPEDTAVYYCAARFYSSAYWYDYWGQGTQVTVSS”, the “polyreactivity (PSR sort gate)” value was “high polyreactivity”.

“QVQLVESAGGLVQAGGSLRLICAASGRIFYLNAMGWYRQAPGKESELVAAINTSCGSTYADSVKWRFTISRDNAKNTVYLQMNSLKPEDTAVYYCNAYLAEVLPLGKGRLYDYWGQGTQVTVSS”: the “polyreactivity (PSR sort gate)” value is given as “low polyreactivity”.

As for “QVQLVESAGGLVQAGGSLRLICAASGSIFDLYAMGWYRQAPGTERELVAASTWSGGSTYYADSVKGRFTISRDNAKNTVYLQMNSLKPEDTAVYYCAAAYVGTQDLVIDYDYWGQGTQVTVSS”, the “polyreactivity (PSR sort gate)” value is listed as “low polyreactivity”.

As for “QVQLVESAGGLVQAGGSLRLSCAASARTFGAYAMGWYRQAPGNERELVATITVSGGSTYYADSVKGRFTISRENAKNTVYLPMNSLKPEDTAVYYCAAAYDWWQFYSWTIAYDYWGQGTQVTVSS”, the “polyreactivity (PSR sort gate)” value was “low polyreactivity”.

In the case of “QVQLVESAGGLVQAGGSLRLSCAASGFIFRFNAMGWYRQAPGKERELVAAISWSGSSTYYADSVKGRFTISRDNAKNTVYLQMNSLKPEDTAVYYCATSAFYYKIVKGDFYYWGQGTQVTVSS”, the “polyreactivity (PSR sort gate)” value is “high polyreactivity”.

With “QVQLVESAGGLVQAGGSLRLSCAASGFTFIGYVMGWYRQAPGKERELVAAITSGGDTNYADSVKGRFTISRDNAKNTVYLQMNSLKPEDTAVYYCNKGAYWVEYAYIEGELDYWGQGTQVTVSS”, the “polyreactivity (PSR sort gate)” value was “low polyreactivity”.

Take “QVQLVESAGGLVQAGGSLRLSCAASGFTFREYAMGWYRQAPGKERELVADIDWSGGSTYYADSVKGRFTISRDNAKNTFYLQMNSLKPEDTAVYYCAKAYYPGVYWGQGTQVTVSS”: the “polyreactivity (PSR sort gate)” value is “high polyreactivity”.

Consider “QVQLVESAGGLVQAGGSLRLSCAASGFTFSSYVMGWYRQAPGKARELVAAISSSGARTYYADSVKGRFTISRDNAKNTVYLQMNSLKPEDNADYYCAAENSPRPYDYWGQGTQVTVSS”, for which the “polyreactivity (PSR sort gate)” value was “high polyreactivity”.

For the sequence “QVQLVESAGGLVQAGGSLRLSCAASGGIFVFYAMGWYRQAPGKERELVAAITYRGGSTSYADSVKGRFTISRDHAKNTVYLQLNSVKPEDTAVYYCAAAFYAKGQRYGYWGHGTQVTVSS”, the “polyreactivity (PSR sort gate)” value is listed as “high polyreactivity”.

Take “QVQLVESAGGLVQAGGSLRLSCAASGIIFRPNPLGWYRQAPGKERELVAAISKRGGSTYYADSVKGRFTISRDNAKNTVYLQMNSLKPEDTAVYYCAKRQQQSSGYDYWGQGTQVTVSS”: the “polyreactivity (PSR sort gate)” value is “high polyreactivity”.

Take “QVQLVESAGGLVQAGGSLRLSCAASGIIFTPNPMGWYRQAPGKEREFVAAINYGGDTTYYADSVKGRFTISRNNAKNTVYLQMNRLKPEDTAVYYCATDGTTPTPRDAFVRFDHWGQGTQVTVSS”: the “polyreactivity (PSR sort gate)” value is “low polyreactivity”.

As for “QVQLVESAGGLVQAGGSLRLSCAASGITFSGYAMGWYRQAPGKERELVAAISWRGVRTYYADSVKGRFTISRDNAKNTVYLQMNSLKPEDTAVYYCAAVRYITKEFYWGQGTQVTVSS”, the “polyreactivity (PSR sort gate)” value was “high polyreactivity”.

Consider “QVQLVESAGGLVQAGGSLRLSCAASGLIIYYYAMGWYRPAPGKERELVAAISGSSGASTYYADSVKGRFTISRDNAKNTVYLQMNSLKPEDTAVYYCNADWARLWIRSTEFDYWGQGTQVTVSS”, for which the “polyreactivity (PSR sort gate)” value is “low polyreactivity”.

In the case of “QVQLVESAGGLVQAGGSLRLSCAASGRIFQFYAMGWYRQARGKERELVAVITRRGGSTHYADSVKGRFTISRDTAKNTVYLQMNILKPEDTAVYYCAKVPFHFVSPYDYWGQGTQVTVSS”, the “polyreactivity (PSR sort gate)” value is reported as “high polyreactivity”.

“QVQLVESAGGLVQAGGSLRLSCAASGRIFSTYAMGWYRQAPGKERELVAAISWRGSSTYYADSVKGRFTISRDHAKNTVYLQMNSLKPEDTAVYYCNADKANRYDWGQGTQVTVSS”: the “polyreactivity (PSR sort gate)” value was “high polyreactivity”.

In the case of “QVQLVESAGGLVQAGGSLRLSCAASGRIFVYYAMGGYRKAPGKERELVAAISDSDDSSYYADSVKGRFTISRDNAKNTVYLQMNSLKPEDTAVYYCAAEGDIGGDDYYWGQGTQLTVSS”, the “polyreactivity (PSR sort gate)” value was “high polyreactivity”.

As to “QVQLVESAGGLVQAGGSLRLSCAASGRIFWGNAMGWYRQAPGKERELVAAITRRGGTKFYADSVKGRFTISRDNAKNTVYLQMNSLIPEDTAVYYCAARRYGQYDGYDSWGQGTQVTVSS”, the “polyreactivity (PSR sort gate)” value is reported as “high polyreactivity”.

As for “QVQLVESAGGLVQAGGSLRLSCAASGRILFGYAMGWYRQAPGKERELVADITSTGSTNYADSVKGRFTISRDNAKNTVYLQMNSLKPEDTAVYYCNVDDTSWTTSGGRFGQVESDYWGQGTQVTVSS”, the “polyreactivity (PSR sort gate)” value was “low polyreactivity”.

As for “QVQLVESAGGLVQAGGSLRLSCAASGRTFGRYAMGGYRQAPGKERELVAGISGSVGITYYADSVKGRFTISRDNAKNTVYLQMNSLKPEDTAVYYCAVVARAGHKYDYWGQGTQVTVSS”, the “polyreactivity (PSR sort gate)” value is “low polyreactivity”.

“QVQLVESAGGLVQAGGSLRLSCAASGRTFGYYAMGWYRQAPGKERELVAAISSGGSTNYADSVKGRFTISRDNAKNTVYLQMNSLKPEDTAVYHCAAKAWYYPGRRNYYQYYYWGQGTQVTVSS”: the “polyreactivity (PSR sort gate)” value is “high polyreactivity”.

In the case of “QVQLVESAGGLVQAGGSLRLSCAASGRTFKYYAMGWYRQAPGKERELVAAITSTGGSTYYADSVKGRFTISRDNEKNTVYLQMNSLKPEDTAVYYCNRYTQYRDRSDNHWGQGTHVTVSS”, the “polyreactivity (PSR sort gate)” value is recorded as “high polyreactivity”.

With “QVQLVESAGGLVQAGGSLRLSCAASGRTFRKYAMGRYRQAPGKERELVAAISSSGGSTFYADSVKGRFTISRDNAKNTVYLQMNSLKPEDTAVYYCAAEALRRYSFGYWGQGTQVTVSS”, the “polyreactivity (PSR sort gate)” value was “low polyreactivity”.

As to “QVQLVESAGGLVQAGGSLRLSCAASGRTFTDYVMGWYRQAPGKESELVAAITSGGGTTYYADSVKGRFTISRDNAKKTVYLQMNSLKPEDTAVYYGNAVSYRRSRYWGYVYWGQGTQVTVSS”, the “polyreactivity (PSR sort gate)” value is “high polyreactivity”.

Turning to “QVQLVESAGGLVQAGGSLRLSCAASGRTIDSYTMGWYRQAPGKERELVASISKRGGSTYYADSVKERFTISRDNAKNTVYLQMNSLKPQDTAVYYCATKSYYVSYYRYRVDYWGQVTQVTVSS”, the “polyreactivity (PSR sort gate)” value was “high polyreactivity”.

Turning to “QVQLVESAGGLVQAGGSLRLSCAASGSIFDDYAMGWYRQAPGKERELVAAISDSGGSTSYADSVKGRFTISRDNAKNTVYLQMNSLKPEDTAVYYCNADRDDDYDYWGQGTQVTLSS”, the “polyreactivity (PSR sort gate)” value is “low polyreactivity”.
